Laboratory results from US11969464B2, “Amidated peptides and their deamidated counterparts displayed by HLA-A*02 for use in immunotherapy against different types of cancers” (Immatics Biotechnologies GmbH, priority 2020, dated 2024).

Biological target: HLA-A*02:01 (Homo sapiens, UniProt P04439, D140Y/D185E/D98H/E176V/E277Q/G131W/G231S/I119V/I121R/I166T/I218V/L300P/L318F/N151K/N90K/P208A/P217A/Q86G/Q94H/R138H/R169H/T345S)
Experiment: MHC binding assay (UV-ligand exchange, anti-β2m ELISA)
Conditions: peptide exchange yield, binding to HLA-A*02:01
Source text: Candidate peptides for T cell based therapies according to the present invention were further tested for their MHC binding capacity (affinity). The individual peptide-MHC complexes were produced by UV-ligand exchange, where a UV-sensitive peptide is cleaved upon UV-irradiation and exchanged with the peptide of interest as analyzed. Only peptide candidates that can effectively bind and stabilize the peptide-receptive MHC molecules prevent dissociation of the MHC complexes. To determine the yield of the exchange reaction, an ELISA was performed based on the detection of the light chain (β2m) of stabilized MHC complexes. The assay was performed as generally described in Rodenko et al. (Rodenko et al., 2006).
96 well MAXISorp plates (NUNC) were coated over night with 2 μg/ml streptavidin in PBS at room temperature, washed 4× and blocked for 1 h at 37° C. in 2% BSA containing blocking buffer. Refolded HLA-A*02:01/MLA-001 monomers served as standards, covering the range of 15-500 ng/ml. Peptide-MHC monomers of the UV-exchange reaction were diluted 100-fold in blocking buffer. Samples were incubated for 1 h at 37° C., washed four times, incubated with 2 μg/ml HRP conjugated anti-β2m for 1 h at 37° C., washed again and detected with TMB solution that is stopped with […]. Absorption was measured at 450 nm. Candidate peptides that show a high exchange yield (preferably higher than 50%, most preferred higher than 75%) are generally preferred for a generation and production of antibodies or fragments thereof, and/or T cell receptors or fragments thereof, as they show sufficient avidity to the MHC molecules and prevent dissociation of the MHC complexes.

Row | Substance | Peptide exchange
1 | 14 (YIYDGKDMSSL; peptide displayed by HLA-A*02) [compound 14] | +++ (≥50% = +++)
2 | 25 (FMNDRSFIL; peptide displayed by HLA-A*02) [compound 25] | ++++ (≥75% = ++++)
3 | 37 (AIDDTAARL; peptide displayed by HLA-A*02) [compound 37] | +++ (≥50% = +++)
4 | 9 (SLDDSLNEL; peptide displayed by HLA-A*02) [compound 9] | +++ (≥50% = +++)
5 | 30 (QLMEKVQDV; peptide displayed by HLA-A*02) [compound 30] | +++ (≥50% = +++)
6 | 4 (YVWDRTELL; peptide displayed by HLA-A*02) [compound 4] | ++++ (≥75% = ++++)
7 | 23 (FLGPIVDL; peptide displayed by HLA-A*02) [compound 23] | ++++ (≥75% = ++++)
8 | 19 (RLLDTTDVYLL; peptide displayed by HLA-A*02) [compound 19] | ++++ (≥75% = ++++)
9 | 24 (QLLGRDISL; peptide displayed by HLA-A*02) [compound 24] | ++++ (≥75% = ++++)
10 | 34 (SLLDGSESAKL; peptide displayed by HLA-A*02) [compound 34] | ++++ (≥75% = ++++)
11 | 45 (SLFDDSFSL; peptide displayed by HLA-A*02) [compound 45] | ++++ (≥75% = ++++)
12 | 12 (FVDEHTIDI; peptide displayed by HLA-A*02) [compound 12] | +++ (≥50% = +++)
13 | 33 (ILFDLTHRV; peptide displayed by HLA-A*02) [compound 33] | ++++ (≥75% = ++++)

More lines, now with the values ahead:

Row | Peptide exchange | Substance
14 | ++++ (≥75% = ++++) | 74 (KILDFTGPLFL; peptide displayed by HLA-A*02) [compound 74]
15 | ++++ (≥75% = ++++) | 70 (SMASFLKDV; peptide displayed by HLA-A*02) [compound 70]
16 | +++ (≥50% = +++) | 84 (KMLDETVLV; peptide displayed by HLA-A*02) [compound 84]
17 | ++++ (≥75% = ++++) | 79 (ALAGLVYDA; peptide displayed by HLA-A*02) [compound 79]
18 | +++ (≥50% = +++) | 81 (AVDKTQTSV; peptide displayed by HLA-A*02) [compound 81]
19 | ++++ (≥75% = ++++) | 94 (YLWWVNDQSL; peptide displayed by HLA-A*02) [compound 94]
20 | ++++ (≥75% = ++++) | 56 (LLDSTAHLL; peptide displayed by HLA-A*02) [compound 56]
21 | ++++ (≥75% = ++++) | 86 (NLADNTILV; peptide displayed by HLA-A*02) [compound 86]
22 | ++++ (≥75% = ++++) | 77 (YLHGFDLSL; peptide displayed by HLA-A*02) [compound 77]
23 | +++ (≥50% = +++) | 67 (LLDTTDVYL; peptide displayed by HLA-A*02) [compound 67]
24 | ++++ (≥75% = ++++) | 95 (KLAPEDLADLTAL; peptide displayed by HLA-A*02) [compound 95]
25 | ++++ (≥75% = ++++) | 90 (VLDGTEVNL; peptide displayed by HLA-A*02) [compound 90]
26 | +++ (≥50% = +++) | 58 (SQDASLLKV; peptide displayed by HLA-A*02) [compound 58]
27 | ++++ (≥75% = ++++) | 59 (SQTDLSPAL; peptide displayed by HLA-A*02) [compound 59]
28 | ++++ (≥75% = ++++) | 75 (KLHDTSFCL; peptide displayed by HLA-A*02) [compound 75]
29 | ++++ (≥75% = ++++) | 57 (SLDISLPNL; peptide displayed by HLA-A*02) [compound 57]
30 | +++ (≥50% = +++) | 53 (ILTDITGHDV; peptide displayed by HLA-A*02) [compound 53]
31 | ++++ (≥75% = ++++) | 62 (FLKDVTAQI; peptide displayed by HLA-A*02) [compound 62]
